Measurements as given in US20100092481A1 (INSTITUTE FOR RESEARCH IN BIOMEDICINE, published 2010).

How the values were obtained:
[1] = target: T1, hCMV gH, gL, UL128, UL130 and UL131A co-expressed in HEK293T cells (human cytomegalovirus, UniProt P12824 24-743; P16832 31-278; P16837 1-171; P16772 1-214); test: cell cross-competition, 20x excess; competitor 1F11-biotin
T1 construct: whole, on cells; also called gH + gL + UL128 + UL130 + UL131A; gH/gL/UL128-130 complex

[2] = target: T2, hCMV UL130 and UL131A co-expressed in HEK293T cells (human cytomegalovirus, UniProt P16772 1-214); test: cell-based or functional assay
[3] = target: T1, hCMV gH, gL, UL128, UL130 and UL131A …; test: cell cross-competition, 20x excess; competitor 2C12-biotin
[4] = target: T1, hCMV gH, gL, UL128, UL130 and UL131A …; test: cell cross-competition, 20x excess; competitor 8I21-biotin
[5] = target: T2, hCMV UL130 and UL131A co-expressed in …; test: cell-based or functional assay; remark: listed apart in the source
[6] = target: T1, hCMV gH, gL, UL128, UL130 and UL131A …; test: cell cross-competition, 20x excess; competitor 4I22-biotin
[7] = target: T1, hCMV gH, gL, UL128, UL130 and UL131A …; test: cell cross-competition, 20x excess; competitor 6G4-biotin
[8] = target: T1, hCMV gH, gL, UL128, UL130 and UL131A …; test: cell cross-competition, 20x excess; competitor 15D8-biotin
[9] = target: T1, hCMV gH, gL, UL128, UL130 and UL131A …; test: cell cross-competition, 20x excess; competitor 2F4-biotin
[10] = target: T1, hCMV gH, gL, UL128, UL130 and UL131A …; test: cell cross-competition, 20x excess; competitor 4N10-biotin
[11] = target: T1, hCMV gH, gL, UL128, UL130 and UL131A …; test: cell cross-competition, 20x excess; competitor 10F7-biotin
[12] = target: T1, hCMV gH, gL, UL128, UL130 and UL131A …; test: cell cross-competition, 20x excess; competitor 5A2-biotin
[13] = target: T1, hCMV gH, gL, UL128, UL130 and UL131A …; test: cell cross-competition, 20x excess; competitor 8J16-biotin

T2 sequence (P16772 whole entry): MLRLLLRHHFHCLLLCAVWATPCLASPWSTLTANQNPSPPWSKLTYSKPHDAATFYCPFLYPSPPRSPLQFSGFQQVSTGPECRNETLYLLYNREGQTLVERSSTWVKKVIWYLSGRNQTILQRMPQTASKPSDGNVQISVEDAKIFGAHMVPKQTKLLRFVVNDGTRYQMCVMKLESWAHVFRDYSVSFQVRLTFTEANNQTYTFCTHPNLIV

Binder	Inhibition of binding (%) [1]	90% Neutralization ARPE (hCMV VR1814) [2]	90% Neutralization MRC-9 (hCMV VR1814) [2]	Inhibition of binding (%) [3]	Inhibition of binding (%) [4]	50% Neutralization ARPE (hCMV VR1814) [5]	50% Neutralization MRC-9 (hCMV VR1814) [5]	Inhibition of binding (%) [6]	Inhibition of binding (%) [7]	Inhibition of binding (%) [8]	Inhibition of binding (%) [9]	Inhibition of binding (%) [10]	Inhibition of binding (%) [11]	Inhibition of binding (%) [12]	Inhibition of binding (%) [13]
10P3 (antibody, V domains shown, human IgG mAb) VH: EVQLVESGGGLVRPGGSLRLSCAASGFTFHNYRMNWVRQAPGKGLEWVANIKQDGSEKSYVDSVRGRFTTSRDNSKNSLYLQINSLRAEDTAVYYCARGEGYTYGVVYSYSAMDVWGQGTTVIVSS VL: SYELTQPPSVSVSPGQTARITCSGNVLPNQYASWYQQKPGQAPVLVIYKDTERPSGIPGRFSGSSSGTTVTLTISGVQAEDEADYYCQSADSSGADYVFGTGTKVTVL	0%	0.0025 µg/mL	> 10 µg/mL	0%	0%	< 0.001 µg/mL	> 2 µg/mL	0%	0%	0%	0%				
10F7 (antibody, V domains shown, human IgG mAb; also called 10F7-biotin) VH: EVQLVESGGGLVQPGRSLRLSCTASGFTFGDYAMSWFRQAPGKGLEWVGFIRSKAYGGTTEYAASVKGRFTISRDDSKSIAYLQMNSLKTEDTAVYYCTRASSLLWLLNPQPNFDYWGQGTLVTVSS VL: SYVLTQPPSVSVAPGQTARITCGGNNIGSNNVHWYQQKPGQAPVLVVYDDSDRPSGIPERFSGSNSGNTATLTISRVEAGDEADYYCQVWDSSSDHPVFGGGTKLTVL	100%	0.002 µg/mL	> 10 µg/mL	0%	0%	< 0.01 µg/mL	≤ 2 µg/mL	100%	0%	0%	100%	0%	100%	0%	
4I22 (antibody, V domains shown, human IgG mAb; also called 4I22-biotin) VH: QVQLVESGGGVVQPGRSLRLSCVASGFTFSSYAMHWVRQAPGKGLEWVAVISYDGDNKFYADSVKGRFRISRDTSKNTLYLEMNSLRAADTAIYYCAREELVGLMPPYYNYGLDVWGQGTTVTVSS VL: QSVLTQPPSVSAAPGQKVTISCSGSNSNIGNNYVSWYQQLPGRAPKLLIYDNDHRPSGIPDRFSGSKSGTSATLVITGLQTGDEADYYCETWDTSLSAAVVFGGGTKLTVL	100%	0.0015 µg/mL	> 10 µg/mL	0%	0%	< 0.01 µg/mL	> 2 µg/mL	100%			100%	0%	100%	0%	0%
8L13 (antibody, V domains shown, human IgG mAb) VH: QVQLLESGGGVVQPGRSLRLSCAASGFTFSNYGMHWVRQAPGKGLEWVAVIWNDGSKKYYAESVKGRFTISRDNSKNTVYLQMNSLRAEDTAVYYCARDEGVQMVFAMPDYGMDVWGQGTTVTVSS VL: SYELTQPPSVSVSPGQTASITCSGDKLGDKFACWYQQRPGQSPILVIYQDSKRPSGIPERFSGSNSGNTATLTIRGTQAMDEADYYCQAWDSSTAHYVFGTGTKVTVL	100%	0.001 µg/mL	> 10 µg/mL			< 0.01 µg/mL	> 2 µg/mL						100%		
15D8 (antibody, V domains shown, human IgG mAb; also called 15D8-biotin) VH: EVQLVQSGAEVKKPGESLKISCQASGYSFTNYWIAWVRQMPGKGLEWMGIIYPGDSDIKYSPSFRGQVTISADKSISNAFLQWRSLRASDTAMYYCARHAIRGDGFDYWGQGTLVTVSS VL: SYELTQPPSVSVSPGQTATITCSGDKLGEKYACWYQQKPGQSPVLVMYQDTKRPSGIPERFSGSNSGNTATLTISGTRAMDEADYYCQAWDTNTVIFGGGTKLTVL	0%			0%	0%			0%	0%	100%	0%	0%	0%	0%	
3G16 (antibody, V domains shown, human IgG mAb; also called 3G16-biotin) VH: QSALTQPASVSGSPGESITISCTGTISDVGAYNSVSWYQQHSGTAPELIIYDVTNRPAGVSSRFSGSKSGNTASLTISWLQSEDEAEYYCSSYTTSDTYVFGSGTQVTVL V domain: RAQLVQSAAEMKNPGASVKVSCEASGYTFTGYYVHWMRQAPGQGLEWMGWINPMTGATKSPQKFQGRVTMTRDTSTTATHIELTRLRSDDSAVFFCARGGPTSTRITGKRHFDLWGRGTLITVAS				0%	0%				0%						
4N10 (antibody, V domains shown, human IgG mAb; also called 4N10-biotin) VH: QVQLVQSGAEVKKPGSSVRVSCKASGGTFSSYVIIWVRQAPGQGLEWMGGVIPIFDTVNYAQKFQGRVTITADESTSTAYMELSSLKSEDTAVYYCARGILAYCGGDCYNTPYGMDVWGQGTTVTVSS VL: DIQMTQSPSILSASVGDRVTITCRASQSISSWLAWYQQKPGKAPKLLIYKASSLEIGVPSRISGSGSGTEFTLTISSLQPDDFATYYCQQYNSSWTFGQGTKVEIK	0%	0.02 µg/mL	> 10 µg/mL	0%	90%	< 0.001 µg/mL	≤ 2 µg/mL	0%	0%	0%	0%	100%	0%	100%	
8I21 (antibody, V domains shown, human IgG mAb; also called 8I21-biotin) VH: LVELVESGGGVVQPGRSLRLSCAASGFTFSSDGMHWVRQSPGRGLEWVAFISSDGSTPYYADSVKGRFTISRDNSKNTLYLQMNSLRAEDTAMYFCAKDWALFRWLRTFDHWGQGTLVTVSS VL: not shown	0%			0%	100%			0%	0%	0%	0%	90%		95%	
